# Reference: the supplement of paper PMC12042874
# ± gives the uncertainty stated by the source.
# Experiment: amyloid nucleation score (Sup35N fusion, yeast selection) (log enrichment); library NNK3; higher = more nucleation; inactive = no reads after selection
# Summary of the method: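 Sup35N fusions to peptides of 20 random codons were expressed in psi-negative yeast, induced 24 hours with 100 μM copper sulfate, and grown 7 days at 30°C on medium lacking adenine and uracil. Input and output plasmid inserts were sequenced by Illumina. The nucleation score is the DiMSum log enrichment of output over input reads, centred on the mode score of non-aggregating sequences. Sequences with under 100 input reads were excluded.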
row,Substance,amyloid nucleation score
1,RFPDLLQMVRAKAPDPLQQH,inactive
2,NWTYTAENPG,inactive
3,NPRTRFILNLPVFPSYHEHP,inactive
4,DYALC,inactive
5,ARVVVG,inactive
6,SVGRQSLYDL,0.285 ± 0.24
7,VGNLCVLKGTTIMFGIMGST,1.18 ± 0.14
8,RMGVPTSYPDPDLSNDVER,inactive
9,FSLSQLLVCFWADSRSMKWT,inactive
10,RYDLIVKVVVSGESVSTWCC,inactive
11,TSFFNNFSLLFVLVWNVLRG,inactive
12,WLLEKYKLCMGWFFYSDFLT,inactive
13,GRVPLPCICDRWYYLEGWEV,-0.034 ± 0.96
14,SNYCCRVSFVIKLLRMVYNF,2.42 ± 0.08
15,LHITVEIWTLWK,inactive
16,LHSSNCCNEIVMRNRCWRKF,inactive
17,YGVSMVVENYL,inactive
18,LQIPKPFAMKYTMFQRKQND,inactive
19,VEALILSVRKCVFGLPVPAL,inactive
20,IYSRELHVCAVSIADFIWFW,inactive
21,NMETYLFANVMLFGKPGLLS,1.01 ± 0.12
22,CNRWNHL,inactive
23,LEDRACVFNKLIVLQ,inactive

row,Substance,amyloid nucleation score
1,LFYLGIYDFDGNW,inactive
2,ILWDKRRSYYCIMGAIYIVR,inactive
3,VFVKLQHVGMSLGSFFPGSM,0.85 ± 0.19
4,GFLTKCALWKIWF,inactive
5,WAYRCTR,inactive
6,NSLVLTLLNLVGKSLHHFYN,inactive
7,PKVRMAPVNERNDFFSVILG,inactive
8,TGVVTMF,inactive
9,FGWLTPDMKFLCTYKQRISG,inactive
10,LYAKF,inactive
11,EIIFSSLSIPLYMLEGI,inactive
12,RDMPLMGVYKIPVDAFYSVS,inactive
13,CSVQVGITSCSNGGYSNVYA,inactive
14,GFCICEYDRCTIFSYNHYGA,2.94 ± 0.054
15,YYSGVFPNVVGRS,inactive
16,HAEFSEHITCGGSGPSCFVG,inactive
17,IDHKCCNNTVS,inactive
18,CDHCRDKCMANRMSSRSLRW,inactive
19,QQKGHTYKLLYNGGRLYFPT,0.29 ± 0.51
20,LFMCIAMM,0.284 ± 0.46
21,VISVGLVIKRLYSMWYLAAG,inactive
22,WLHSGYGSNLPKATMRYCPN,inactive
23,ISDDICSFVAHSAILFGRQM,inactive

row,Substance,amyloid nucleation score
1,VDFYLR,inactive
2,FHYCCYITAAQYYDACCVVP,inactive
3,RSPTNV,inactive
4,LDERCLLVGMAYMLVCY,inactive
5,NYNCVVDNLSGKCMNEILGY,1.09 ± 0.097
6,TGYCYMILLRNGVQVSVEGT,0.092 ± 0.81
7,FLCVRSFRFVCVLFFNDIT,inactive
8,NQARHRSSIRRCG,inactive
9,YASVRVGMPSCDECGMFCLE,inactive
10,LVFSTSLH,inactive
11,LFRIRQCFFYFSIFLVFSIK,inactive
12,YLESGLTS,inactive
13,LRKSLTEQPPKGLASRLYWS,inactive
14,RSSSCLKTYLYLCGGWTSTF,0.003 ± 0.26
15,LSSGNGSFVRYI,inactive
16,RVAHFY,inactive
17,TFWFD,inactive
18,VFAFTKMESRFLLGLRVDEY,0.729 ± 0.15
19,SCILCIFPVRLVFYMM,inactive
20,IFLGYRNYDYFSFTVLVE,inactive
21,PNMSIPLLCLCDNISDFHRF,1.69 ± 0.12
22,LAVFSNRRCFFLENQYHRRS,inactive
23,ASVRSGYDMVGFGILFGQMS,inactive

row,Substance,amyloid nucleation score
1,VPRMSALRESFHKDNS,inactive
2,NKSRTYCSARRLHRGKFRLI,inactive
3,LSIYRFSCTNSRCLMDLFI,inactive
4,STVRVWHCLFFFLIGVHNCC,inactive
5,DSTSLKIGRNAMSHHKSNPC,1.09 ± 0.11
6,RTYARYSMVGRLTMTSTRCE,inactive
7,AMSTDLLSVACL,inactive
8,FTWIFRFMPIWHACDKRVFE,1.71 ± 0.088
9,YETVMFSS,inactive
10,NLSRLKRFYIANSR,inactive
11,KGSVRYIDCIVIL,1.77 ± 0.063
12,DPYAGLDNLTRIWASKPSKY,inactive
13,IFGWLVDYLSFRVYKEDKGV,inactive
14,SVYCSCISFGPTSKILVIMD,2.34 ± 0.088
15,DAIPARVYYGCQFILCRNDL,2.85 ± 0.084
16,SERYADL,inactive
17,IYKKNMAGRVDQKIVTQDPP,inactive
18,LRIMSIYIEEALSIGHDNWF,0.205 ± 0.46
19,VQLLDLKILIIDSVDSKYVC,inactive
20,YWYTTCIWRVTSNCWVCISW,inactive
21,CRVWEDDFLSNRSGLVRHLT,inactive
22,VYCSSVSCLEVWCGPLHTVR,1.53 ± 0.081
23,VSSCAC,inactive

row,Substance,amyloid nucleation score
1,VCASIGCRTGD,inactive
2,TKECGKKFNYWVRIDLSRLW,inactive
3,HVLYRRSSPYCVRWCNITER,inactive
4,IFLDNFFKSFFGRRGSKS,0.662 ± 0.13
5,QTCSNYLNTFRSRRDWLVKG,inactive
6,KVVNGVRCKKSQGLI,inactive
7,YARHSLDMRTSRDLTTLLGL,inactive
8,LAPRSMGIATSSHGSSNVIG,-0.387 ± 0.88
9,HGFFNLWWRARLHLAPLHHH,inactive
10,SCVDPVRWLRGASF,inactive
11,TPMWMGT,inactive
12,TFSASAVFTYDKGAPPLLEG,0.999 ± 0.17
13,CSPRTWCFGYNLFDM,2.5 ± 0.074
14,VLNFIMAWYNFRFVWGSMGV,inactive
15,LVRYLENIRLRS,inactive
16,HYMRMQTSLANRYIARNVAR,inactive
17,LNLWPNSD,inactive
18,AHVSLVSLRKRLPYFGFASV,inactive
19,FGHIGQRRSFVIHLMHDGSP,inactive
20,SDKPSMLKMIHVMR,inactive
21,SAEVATFFNCKYHSSLSILT,inactive
22,YLDFDRMFVQCEFCLTDLDL,0.59 ± 0.13
23,INTVLLGYS,inactive

row,Substance,amyloid nucleation score
1,DLLPLVTKYFSIGLH,inactive
2,SVAVRWKAYVMVLSEHSPRG,inactive
3,TASPCFNSYLKNFVLGLPTT,inactive
4,HGWYSVFADSRRYCKRVRYT,inactive
5,MQPGYQCDNVVRSCHDAHGY,inactive
6,ATLRAFATVYFHLVTHMFNF,inactive
7,FLCSTVIISNVLMRPAYYVR,inactive
8,GLSVVYSNRYNTWVRDLKDW,0.376 ± 0.22
9,VVEPNTRVIWRLLHIDLDKQ,inactive
10,LISMVYLNVRLCQ,inactive
11,NFPYYSEYFFLCIRDSTSKS,inactive
12,KMKIT,inactive
13,TRVLSINRNTPANRLIGVGC,inactive
14,VWVRLTFKTSY,0.678 ± 0.16
15,MDGGFECGNEGICWSTCVLG,inactive
16,CMVSYASDTGGKESELACVV,inactive
17,SVERFIMPC,inactive
18,YYCCC,1.63 ± 0.072
19,EAARTDLSILFISWMLLGKR,inactive
20,SILLLDSEGSMNLEAIV,inactive
21,IARATFFINQR,1.43 ± 0.15
22,KFGHSVKSINLLNATTHVWI,-0.126 ± 0.47
23,IQTQTGTLVSRPLQPTAVVR,-0.007 ± 0.82

row,Substance,amyloid nucleation score
1,SLCSVLIMHPSNSDRF,0.101 ± 0.75
2,YFSLWVLSYFLEAPLSLRNN,inactive
3,DSDDNVRKNFAS,inactive
4,LCCKIHSRTKMRRGSC,inactive
5,FYLGEYETLFVKDIRGDSVP,-0.97 ± 1.1
6,DVMRGIKYVRRVNAQLTGSS,inactive
7,ASHHVDSTYDTYYWQHKAKK,inactive
8,IHFMCMWVSNWYVLLVLKE,inactive
9,YEVSTRRRVM,inactive
10,YMDLSILGAMVSVSFNMG,2.56 ± 0.063
11,CLYSSCALGIARDWVVLL,inactive
12,VDRDSWSVPFCALQKHRMQK,inactive
13,LFIWTDILTFLRS,inactive
14,FPLDRGYSVTGDMRMPPAVR,inactive
15,FNDVLMAVITLSVIDTLMWT,inactive
16,LPICDQTIWFLPSRAVAGNV,inactive
17,NLCDVGRMLNCRRTSFGYMF,inactive
18,MSIDPHILVLVGEWLVCLKL,inactive
19,VPWSLCDD,0.508 ± 0.12
20,GSVQTHFLDYGCSPNMDMLV,inactive
21,RISSIAEDSSRAGASEHPGQ,-0.57 ± 1.8
